From publication PMC7055227, “Complete Profiling of Methyl-CpG-Binding Domains for Combinations of Cytosine Modifications at CpG Dinucleotides Reveals Differential Read-out in Normal and Rett-Associated States”

Experiments:
hMeCP2 MBD [1] = target: hMeCP2 MBD (Homo sapiens, UniProt P51608 90-181); assay: EMSA; 20 mM HEPES, 30 mM KCl, 1 mM EDTA, 10 mM (NH4)2SO4, pH 7.3, 1 mM DTT, 0.2% Tween 20, 50 ng/uL poly(dA)-poly(dT) trap, 2 nM duplex, protein in dialysis buffer with BSA; 20 min room temperature; gel at 4 C; details: protein: recombinant, label: 5' 6-FAM on strand 1
Sequence of hMeCP2 MBD (Homo sapiens, UniProt P51608 90-181) (P51608 90-181): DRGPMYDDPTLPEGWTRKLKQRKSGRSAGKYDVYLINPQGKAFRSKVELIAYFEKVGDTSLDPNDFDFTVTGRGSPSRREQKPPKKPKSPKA

hMeCP2 MBD [2] = target: hMeCP2 MBD (Homo sapiens, UniProt P51608); assay: EMSA; poly(dA)-poly(dT) 50 ng/uL; EMSA: 20 mM HEPES pH 7.3, 30 mM KCl, 1 mM EDTA, 10 mM (NH4)2SO4, 1 mM DTT, 0.2% Tween 20, 50 ng/uL poly(dA)-poly(dT), protein diluted in dialysis buffer with 0.1 mg/mL BSA; 2 nM duplex; 20 min at room temperature; gel at 4 C; details: protein: recombinant; tags: N-term SpA(Z)-Factor Xa-TEV, C-term 8xHis; label: 5' 6-FAM on strand 1; blunt
Sequence of hMeCP2 MBD (Homo sapiens, UniProt P51608) (P51608 90-181): as above

hMBD4 MBD [3] = target: T1, hMBD4 MBD (Homo sapiens, UniProt O95243); assay: EMSA; lower than mC/fC; EMSA: 20 mM HEPES pH 7.3, 30 mM KCl, 1 mM EDTA, 10 mM (NH4)2SO4, 1 mM DTT, 0.2% Tween 20, 50 ng/uL poly(dA)-poly(dT), protein diluted in dialysis buffer with 0.1 mg/mL BSA; 2 nM duplex; 20 min at room temperature; gel at 4 C; details: protein: recombinant; tags: N-term SpA(Z)-Factor Xa-TEV, C-term 8xHis; label: 5' 6-FAM on strand 1; blunt
T1 sequence (O95243 76-167): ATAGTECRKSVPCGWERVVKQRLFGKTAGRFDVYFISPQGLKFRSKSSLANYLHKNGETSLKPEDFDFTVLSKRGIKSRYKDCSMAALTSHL

hMBD4 MBD [4] = target: T1, hMBD4 MBD; assay: EMSA; new preferred combination; EMSA: 20 mM HEPES pH 7.3, 30 mM KCl, 1 mM EDTA, 10 mM (NH4)2SO4, 1 mM DTT, 0.2% Tween 20, 50 ng/uL poly(dA)-poly(dT), protein diluted in dialysis buffer with 0.1 mg/mL BSA; 2 nM duplex; 20 min at room temperature; gel at 4 C; details: protein: recombinant; tags: N-term SpA(Z)-Factor Xa-TEV, C-term 8xHis; label: 5' 6-FAM on strand 1; blunt
hMBD4 MBD [5] = target: T1, hMBD4 MBD; assay: EMSA; higher than mC/hmC; EMSA: 20 mM HEPES pH 7.3, 30 mM KCl, 1 mM EDTA, 10 mM (NH4)2SO4, 1 mM DTT, 0.2% Tween 20, 50 ng/uL poly(dA)-poly(dT), protein diluted in dialysis buffer with 0.1 mg/mL BSA; 2 nM duplex; 20 min at room temperature; gel at 4 C; details: protein: recombinant; tags: N-term SpA(Z)-Factor Xa-TEV, C-term 8xHis; label: 5' 6-FAM on strand 1; blunt

B1: p07 hmC/mC duplex (dsDNA)
DNA 1: AAAAAAAAAAACGAAAAAAAAAAA
DNA 2: TTTTTTTTTTTCGTTTTTTTTTTT
modifications: 5-hydroxymethylcytosine at C12 of strand 1; 5-methylcytosine at C12 of strand 2 (o3115/o2909)
For B1, the Kd (hMeCP2 MBD [1]; blunt) was 224 ± 24.6 nM.

B2: probe p03 (dsDNA)
DNA 1: AAAAAAAAAAACGAAAAAAAAAAA
DNA 2: TTTTTTTTTTTCGTTTTTTTTTTT
modifications: cytosine states of p03 not given in the material (perhaps C/C)
With B2 the Kd (hMeCP2 MBD [2]) was 1080 ± 101 nM.

B3: p03 hmC/C duplex (dsDNA)
DNA 1: AAAAAAAAAAACGAAAAAAAAAAA
DNA 2: TTTTTTTTTTTCGTTTTTTTTTTT
modifications: 5-hydroxymethylcytosine at C12 of strand 1; strand 2 unmodified (o3115/o2904)
B3 gave a Kd (hMeCP2 MBD [1]; blunt) of 1080 ± 101 nM.

B4: p06 mC/mC duplex (dsDNA)
DNA 1: AAAAAAAAAAACGAAAAAAAAAAA
DNA 2: TTTTTTTTTTTCGTTTTTTTTTTT
modifications: 5-methylcytosine at C12 of strand 1 and C12 of strand 2 (o2967/o2909)
With B4 the Kd (hMeCP2 MBD [1]; blunt) was 26.6 ± 3.85 nM.

B5: p11 fC/hmC duplex (dsDNA)
DNA 1: AAAAAAAAAAACGAAAAAAAAAAA
DNA 2: TTTTTTTTTTTCGTTTTTTTTTTT
modifications: 5-formylcytosine at C12 of strand 1; 5-hydroxymethylcytosine at C12 of strand 2 (o3116/o3112)
Work on B5 yielded a Kd (hMeCP2 MBD [1]; blunt) of 541 ± 62.7 nM.

B6: mC/hmC duplex (dsDNA)
DNA 1: AAAAAAAAAAACGAAAAAAAAAAA
DNA 2: TTTTTTTTTTTCGTTTTTTTTTTT
modifications: 5-methylcytosine at C12 of one strand, 5-hydroxymethylcytosine at C12 of the other; strand assignment not certain
B6: binds (hMBD4 MBD [3]).

B7: p10 hmC/hmC duplex (dsDNA)
DNA 1: AAAAAAAAAAACGAAAAAAAAAAA
DNA 2: TTTTTTTTTTTCGTTTTTTTTTTT
modifications: 5-hydroxymethylcytosine at C12 of strand 1 and C12 of strand 2 (o3115/o3112)
Binder B7 has a Kd (hMeCP2 MBD [1]) of 967 ± 89.6 nM.

B8: p08 fC/mC duplex (dsDNA)
DNA 1: AAAAAAAAAAACGAAAAAAAAAAA
DNA 2: TTTTTTTTTTTCGTTTTTTTTTTT
modifications: 5-formylcytosine at C12 of strand 1; 5-methylcytosine at C12 of strand 2 (o3116/o2909)
With B8 the Kd (hMeCP2 MBD [1]; blunt) was 197 ± 24 nM.

B9: hmC/fC duplex (dsDNA)
DNA 1: AAAAAAAAAAACGAAAAAAAAAAA
DNA 2: TTTTTTTTTTTCGTTTTTTTTTTT
modifications: 5-hydroxymethylcytosine at C12 of one strand, 5-formylcytosine at C12 of the other; strand assignment not certain
B9: binds (hMBD4 MBD [4]).

B10: mC/fC duplex (dsDNA)
DNA 1: AAAAAAAAAAACGAAAAAAAAAAA
DNA 2: TTTTTTTTTTTCGTTTTTTTTTTT
modifications: 5-methylcytosine at C12 of one strand, 5-formylcytosine at C12 of the other; strand assignment not certain
B10: binds (hMBD4 MBD [5]).
